Measurements published in PMC11099176.

What was measured:
[1] = molecular target: SPP1 tails carrying gp16.1 and lacking gp17 (bacteriophage SPP1) (UniProt O48449)
[2] = molecular target: SPP1 tails lacking gp16.1 and gp17 (bacteriophage SPP1) (UniProt O48449)

B1: gp17 of bacteriophage SPP1, purified (natural protein)
chain: MTWKLASRALQKATVENLESYQPLMEMVNQVTESPGKDDPYPYVVIGDQSSTPFETKSSFGENITMDFHVWGGTTRAEAQDISSRVLEALTYKPLMFEGFTFVAKKLVLAQVITDTDGVTKHGIIKVRFTINNN
infectious particles formed in vitro in SPP1gp17− extract (tails with endogenous gp16.1) against 0.003–20 µM purified gp17; gp17 concentration at the plateau [1]: 6 µM
infectious particles formed in vitro in SPP1gp16.1−-gp17− extract with 20 µM purified gp16.1 added, against purified gp17; gp17 concentration at the plateau [2]: 0.2 µM
